Columns and labels:
[1] = molecular target: β subunit of E. coli RNAP (E. coli, UniProt P0A8V2 1-1342); assay: cryo-EM structure
[2] = molecular target: β’ subunit of E. coli RNAP (E. coli, UniProt P0A8T7 1-1407); assay: cryo-EM structure
Sequence of β’ subunit of E. coli RNAP (P0A8T7 whole entry): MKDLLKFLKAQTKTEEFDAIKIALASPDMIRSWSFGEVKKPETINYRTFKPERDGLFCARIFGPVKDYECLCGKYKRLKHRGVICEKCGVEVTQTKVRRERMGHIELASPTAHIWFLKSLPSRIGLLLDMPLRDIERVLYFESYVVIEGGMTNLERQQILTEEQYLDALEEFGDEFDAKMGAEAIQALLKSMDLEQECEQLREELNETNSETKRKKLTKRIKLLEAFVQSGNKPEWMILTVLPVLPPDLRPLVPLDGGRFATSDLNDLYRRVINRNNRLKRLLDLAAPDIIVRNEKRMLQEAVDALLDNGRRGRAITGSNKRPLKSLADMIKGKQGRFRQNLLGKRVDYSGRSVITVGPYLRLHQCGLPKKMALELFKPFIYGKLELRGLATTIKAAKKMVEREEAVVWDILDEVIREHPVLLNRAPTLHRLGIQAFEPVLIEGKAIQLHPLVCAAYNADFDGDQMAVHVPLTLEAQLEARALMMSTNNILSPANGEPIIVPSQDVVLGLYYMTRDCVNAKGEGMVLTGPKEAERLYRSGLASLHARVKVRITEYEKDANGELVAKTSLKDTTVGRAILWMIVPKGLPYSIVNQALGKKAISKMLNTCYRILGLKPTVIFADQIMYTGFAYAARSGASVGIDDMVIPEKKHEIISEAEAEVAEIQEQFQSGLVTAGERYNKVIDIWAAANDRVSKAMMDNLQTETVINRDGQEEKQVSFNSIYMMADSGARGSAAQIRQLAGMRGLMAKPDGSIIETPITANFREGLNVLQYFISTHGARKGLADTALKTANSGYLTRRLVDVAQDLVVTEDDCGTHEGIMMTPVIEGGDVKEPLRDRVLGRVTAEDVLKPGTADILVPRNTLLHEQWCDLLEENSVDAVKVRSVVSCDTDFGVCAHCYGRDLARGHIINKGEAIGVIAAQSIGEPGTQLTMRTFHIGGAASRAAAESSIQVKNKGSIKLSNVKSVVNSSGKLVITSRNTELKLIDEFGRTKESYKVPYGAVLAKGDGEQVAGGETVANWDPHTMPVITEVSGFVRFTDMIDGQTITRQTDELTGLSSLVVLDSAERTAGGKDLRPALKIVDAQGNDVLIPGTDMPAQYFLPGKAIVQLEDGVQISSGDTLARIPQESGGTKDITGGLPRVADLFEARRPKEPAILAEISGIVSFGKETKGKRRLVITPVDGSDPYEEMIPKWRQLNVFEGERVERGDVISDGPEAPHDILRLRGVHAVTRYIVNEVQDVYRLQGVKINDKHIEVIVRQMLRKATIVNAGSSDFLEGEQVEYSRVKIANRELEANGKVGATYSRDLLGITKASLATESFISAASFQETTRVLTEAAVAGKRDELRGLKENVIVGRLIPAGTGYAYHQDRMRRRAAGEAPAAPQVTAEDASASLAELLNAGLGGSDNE

Sequence of β subunit of E. coli RNAP (P0A8V2 whole entry): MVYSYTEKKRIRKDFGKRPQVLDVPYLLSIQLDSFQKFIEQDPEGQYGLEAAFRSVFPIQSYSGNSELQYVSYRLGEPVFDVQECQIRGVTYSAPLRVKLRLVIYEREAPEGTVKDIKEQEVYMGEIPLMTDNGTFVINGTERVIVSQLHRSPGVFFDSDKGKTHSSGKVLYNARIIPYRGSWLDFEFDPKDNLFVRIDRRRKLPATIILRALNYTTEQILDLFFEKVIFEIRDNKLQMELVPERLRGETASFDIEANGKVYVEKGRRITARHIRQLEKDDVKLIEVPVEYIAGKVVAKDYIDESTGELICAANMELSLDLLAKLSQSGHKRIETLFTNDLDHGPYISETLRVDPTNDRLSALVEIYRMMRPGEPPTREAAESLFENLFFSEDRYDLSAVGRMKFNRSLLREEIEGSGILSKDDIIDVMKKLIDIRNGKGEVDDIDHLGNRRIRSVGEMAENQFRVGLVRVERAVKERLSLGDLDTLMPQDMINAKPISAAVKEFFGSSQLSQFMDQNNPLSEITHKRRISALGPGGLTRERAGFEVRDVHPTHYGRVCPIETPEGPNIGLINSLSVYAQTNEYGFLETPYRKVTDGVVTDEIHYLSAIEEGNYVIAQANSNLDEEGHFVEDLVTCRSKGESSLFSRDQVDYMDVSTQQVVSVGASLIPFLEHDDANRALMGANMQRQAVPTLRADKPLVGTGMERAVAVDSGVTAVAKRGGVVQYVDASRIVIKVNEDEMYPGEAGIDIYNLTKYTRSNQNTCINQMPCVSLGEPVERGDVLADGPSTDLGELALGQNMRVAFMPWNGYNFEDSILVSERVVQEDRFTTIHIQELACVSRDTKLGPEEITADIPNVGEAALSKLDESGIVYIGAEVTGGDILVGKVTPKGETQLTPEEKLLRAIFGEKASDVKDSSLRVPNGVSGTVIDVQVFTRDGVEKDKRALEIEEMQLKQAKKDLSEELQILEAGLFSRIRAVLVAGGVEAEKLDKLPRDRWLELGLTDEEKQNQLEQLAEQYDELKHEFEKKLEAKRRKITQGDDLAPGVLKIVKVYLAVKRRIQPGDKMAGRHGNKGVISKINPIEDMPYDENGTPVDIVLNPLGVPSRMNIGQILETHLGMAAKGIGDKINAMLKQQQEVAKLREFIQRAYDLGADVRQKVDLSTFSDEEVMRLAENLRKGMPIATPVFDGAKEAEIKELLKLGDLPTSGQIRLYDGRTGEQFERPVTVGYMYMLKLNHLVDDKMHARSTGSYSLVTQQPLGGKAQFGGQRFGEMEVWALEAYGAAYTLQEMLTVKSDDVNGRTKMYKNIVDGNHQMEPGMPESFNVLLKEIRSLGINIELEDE

B1: E. coli RapA protein (enzyme, UniProt P60240 1-968, looked up)
chain: MPFTLGQRWISDTESELGLGTVVAVDARTVTLLFPSTGENRLYARSDSPVTRVMFNPGDTITSHDGWQMQVEEVKEENGLLTYIGTRLDTEESGVALREVFLDSKLVFSKPQDRLFAGQIDRMDRFALRYRARKYSSEQFRMPYSGLRGQRTSLIPHQLNIAHDVGRRHAPRVLLADEVGLGKTIEAGMILHQQLLSGAAERVLIIVPETLQHQWLVEMLRRFNLRFALFDDERYAEAQHDAYNPFDTEQLVICSLDFARRSKQRLEHLCEAEWDLLVVDEAHHLVWSEDAPSREYQAIEQLAEHVPGVLLLTATPEQLGMESHFARLRLLDPNRFHDFAQFVEEQKNYRPVADAVAMLLAGNKLSNDELNMLGEMIGEQDIEPLLQAANSDSEDAQSARQELVSMLMDRHGTSRVLFRNTRNGVKGFPKRELHTIKLPLPTQYQTAIKVSGIMGARKSAEDRARDMLYPERIYQEFEGDNATWWNFDPRVEWLMGYLTSHRSQKVLVICAKAATALQLEQVLREREGIRAAVFHEGMSIIERDRAAAWFAEEDTGAQVLLCSEIGSEGRNFQFASHMVMFDLPFNPDLLEQRIGRLDRIGQAHDIQIHVPYLEKTAQSVLVRWYHEGLDAFEHTCPTGRTIYDSVYNDLINYLASPDQTEGFDDLIKNCREQHEALKAQLEQGRDRLLEIHSNGGEKAQALAESIEEQDDDTNLIAFAMNLFDIIGINQDDRGDNMIVLTPSDHMLVPDFPGLSEDGITITFDREVALAREDAQFITWEHPLIRNGLDLILSGDTGSSTISLLKNKALPVGTLLVELIYVVEAQAPKQLQLNRFLPPTPVRMLLDKNGNNLAAQVEFETFNRQLNAVNRHTGSKLVNAVQQDVHAILQLGEAQIEKSARALIDAARNEADEKLSAELSRLEALRAVNPNIRDDELTAIESNRQQVMESLDQAGWRLDALRLIVVTHQ
B1: binds [1]; binds [2].

Reference: doi:10.1101/2021.05.05.442812 (bioRxiv, 2021)
